According to the nanobody polyreactivity screen of Harvey et al. (2022):

experiment: yeast display, Sf9 membrane polyspecificity reagent, FACS + sequencing; frameworks hold sequencing errors
Procedure, shortened: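 Synthetic nanobody libraries on Saccharomyces cerevisiae BJ5465 were galactose-induced for 36–48 hours, stained 1 hour at 4 °C with 10% biotinylated, detergent-solubilized Sf9 membrane reagent and enriched on streptavidin microbeads. FACS then separated cells into low and high (top ~1%) gates by anti-HA (expression) and streptavidin (reagent binding) fluorescence. Genes were colony-PCR amplified, MiSeq 2 × 250 sequenced and CDR-length filtered. A clone's polyreactivity label is that of its gate of origin.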

Row | Sequence | polyreactivity (PSR sort gate)
1 | QVQLVESGGGLVQAGGILRLSCAASGRIFLTYAMGWYRQAPGKERELVAAIRSRSGTTYYADSVKGRFTISRDNAKNTVYLQMNSMKPEDTAVYYCAAGGKSRSYYWGQGTQVTVSS | high polyreactivity
2 | QVQLVESGGGLVQAGGSLRLSCAASGRIFNSYAMGWYRQAPGKERELVAAITRGGSTNYADSVKGRFTISRDNAKNTVYLHMNSLKPEDTAVYYCAAVTLFHYRYDYWGQGTQVTVSS | low polyreactivity
3 | QVQLVESGGGLDQAGGSLRLSCAASGRTFYIYTMGWYRQAPGKERELVAAISSSGDSTYYADSVKGRFTISRDNGKNTVYLQMNSLKPEDTAVYYCAAYATYPDEYWGEGTQVTVSS | low polyreactivity
4 | QVQLVESGGGLVQAGGSLRLSCAASGSIFLIYARGSYRQAPGKERELVAAISGRVGSTYYADSVKGRFTISRDNAINTVYLQMNSLKPEDTAVYYCAARNSYGNWRYYYWGQGTQVTVSS | high polyreactivity
5 | QVQLVESGGGLVQAGGSLRLSCAASGRTFSYYAMGWYRQAPGKERELVAAITSSGGRTYYADSVKGRFTISRDTAKKSFYFQMYSLKPEDSAVYFFNTYTGQRDFSPFDSWGQGTQVTVTS | high polyreactivity
6 | QVQLEESGGGLVQAGGSLRLSCAASGSTFGWYAMGWYRQAPGKERELVASITSGGRTNYADSVKGRFTISRDNAKNTVYLQMNCLKPEDTAVYYCAKRVYGSNSLYDYWGQGTQVTVTS | low polyreactivity
7 | QVQLVESGGGLVKAGGSLRLSCAASGRTFRFYAMGWYRQAPGKEREFVAAISRSVGSTYYADSVKGRFTISRDNAKNTVYLQMNSLKPEDTAVYYCNADYRSRYVEYDYWGQGTQVTVSS | high polyreactivity
8 | QVQLVESGGGLVQAGGSLRLSCAASGSILVAYAMGWYRQAPGKERELVAAISSVGNTYYADSVKGRFTISRDNAKNTVYLQMNSLIPEDTAVYYCNAVYRVWYAEWSTVGSPHDYWGQGTQVTVSS | low polyreactivity
9 | QVQLVESGGGLVQAGGSLRISCAASGFILYYYAMGWYRQAPGKERELVAAISRNGGRTYYAVSVKGRFTISRDNAKNTVYLQMNSLKPEDTAVYYCNKGVSRTLSSAYDYWGQVTQVTVSS | high polyreactivity
10 | QVQLVESGGGLVQAGGSLRLSCAASGFTFKINGMGWYRQATGKEREFVATIRTSTGRTNYADSVKGRFTISRDNAKNTVYLQMNSLKPEDTAVYYCAATFKSGMDYWGQGTQVTVSS | high polyreactivity
11 | QVQLVESGGGLVQAGGSLRLSCAASGSTFIVYAMGWYRQAPGKERELVAAITRGGSTNYADSVKGRFTISRDNAKNTVYLQMNSLKPEDTAVYYCAAPYAGWRDGGDYWGQGTQVTVSS | low polyreactivity
12 | QVQLVESGGGLVQAGGSLRLSCAASGRTLWSYTMGWYRQAPGKESELVARITIGGSTNYADSVKGRFTISRDNAKNTVYLQMNSLKPEDTAVYYCNARASYSYGSYLSKSYGYDYWGQGTQVTVSS | high polyreactivity
13 | QVQLVESGGGLVQAGGTLRISCAASGSTFLFYAMGWYRQAPGKERELVAAISSSGTSTYYADSVKGRFTISRDNAKNTVYLQMNSLKPEDTACYYCARRGRSLRWKYDYWGQGTQVTVSS | low polyreactivity
14 | QVQLVESGGGLVQAGGSLRLSCAASGRIFGWNAMGWYRQAPGKERELVAVIDTGGSTNYADSVKGRFTISRDNAKNTVYLQMNSLKPEDTAVYYCAAVTGIRYFTSEYDYWGQGTQVTVSS | low polyreactivity
15 | QVQRVESGGGLVQAGGSLRLSCAASGRIFVAYVMGWYRQAPGKERELVAAITRSGGRTYYADSVKGRFTISRDNAKNTVYLQMNSLKPEDTAVYYCATDSGWSTYDYWGQGTQVSVSS | high polyreactivity
16 | QVQLLESGGGLVQAGGSLRLSCAASGSTFGVYAMGWYRQAPGKEREFVAAINARGTRTRYADSVKGRFTISRDNAKNTVYLQMNSLKPDDTAVYYCAAVWYGYYSIDTYGYWGQGTQVTVSS | high polyreactivity
17 | QVQLVESGGGLVQAGGSLRLICAASGGISLYYVKGWYRQAPGKERELVADISGDDSTNYADSVKGRFTISRDNAKNTVYLQMNSLKPEDTAVYYSAAVPGLFYLPYDYWGQGTQVTVSS | low polyreactivity
